B1: FAM46C (parent)
chain: FDHLQNRLIATKNPEEIRGGGLLK
B2: TPPP (parent)
chain: LCKDCQVIDGRNVTVTDVDIVFSK

Variants of: B1
Assay: protein stability index of a GFP-peptide fusion (GPS, HEK-293T) (PSI 1-6); higher = more stable
Conditions: c terminus: a fixed tail appended
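Also: lentivirally expressed fusions sorted by FACS into six bins by GFP to DsRed ratio, PSI derived from sequencing read proportions per bin multiplied by bin number.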

**Q.** For FDHAQNRLIATKNPEEIRGGGLLK, which protein stability index is on record?
**A.** 3.78

**Q.** Which protein stability index does the source give for FDHTQNRLIATKNPEEIRGGGLLK here?
**A.** 4.27

**Q.** With FDHGQNRLIATKNPEEIRGGGLLK as the variant, how does the protein stability index read?
**A.** 5.22

**Q.** For FDHIQNRLIATKNPEEIRGGGLLK, which protein stability index is on record?
**A.** 3.24

**Q.** Which protein stability index does the source give for FDHPQNRLIATKNPEEIRGGGLLK here?
**A.** 4.62

**Q.** Which protein stability index does the source give for FDHRQNRLIATKNPEEIRGGGLLK here?
**A.** 4.28

**Q.** For FDHHQNRLIATKNPEEIRGGGLLK, which protein stability index is on record?
**A.** 4.79

**Q.** For FDHQQNRLIATKNPEEIRGGGLLK, which protein stability index is on record?
**A.** 4.47

**Q.** For FDHDQNRLIATKNPEEIRGGGLLK, which protein stability index is on record?
**A.** 4.02

**Q.** With FDHFQNRLIATKNPEEIRGGGLLK as the variant, how does the protein stability index read?
**A.** 3.87

**Q.** Which protein stability index does the source give for FDHNQNRLIATKNPEEIRGGGLLK here?
**A.** 4.14

**Q.** For FDHYQNRLIATKNPEEIRGGGLLK, which protein stability index is on record?
**A.** 3.85

**Q.** With FDHVQNRLIATKNPEEIRGGGLLK as the variant, how does the protein stability index read?
**A.** 3.54

**Q.** Which protein stability index does the source give for FDHSQNRLIATKNPEEIRGGGLLK here?
**A.** 4.8

**Q.** With FDHMQNRLIATKNPEEIRGGGLLK as the variant, how does the protein stability index read?
**A.** 4.04

**Q.** Which protein stability index does the source give for FDHWQNRLIATKNPEEIRGGGLLK here?
**A.** 3.8

**Q.** Which protein stability index does the source give for FFHLQNRLIATKNPEEIRGGGLLK here?
**A.** 1.89

**Q.** Which protein stability index does the source give for FSHLQNRLIATKNPEEIRGGGLLK here?
**A.** 4.75

**Q.** With FRHLQNRLIATKNPEEIRGGGLLK as the variant, how does the protein stability index read?
**A.** 3

**Q.** Which protein stability index does the source give for FTHLQNRLIATKNPEEIRGGGLLK here?
**A.** 1.93

**Q.** With FCHLQNRLIATKNPEEIRGGGLLK as the variant, how does the protein stability index read?
**A.** 1.72

**Q.** Which protein stability index does the source give for FGHLQNRLIATKNPEEIRGGGLLK here?
**A.** 2.82

**Q.** For FKHLQNRLIATKNPEEIRGGGLLK, which protein stability index is on record?
**A.** 3.24

**Q.** With FEHLQNRLIATKNPEEIRGGGLLK as the variant, how does the protein stability index read?
**A.** 4.18

**Q.** For FLHLQNRLIATKNPEEIRGGGLLK, which protein stability index is on record?
**A.** 2.33

**Q.** For FPHLQNRLIATKNPEEIRGGGLLK, which protein stability index is on record?
**A.** 4.23

**Q.** With FHHLQNRLIATKNPEEIRGGGLLK as the variant, how does the protein stability index read?
**A.** 3.1

**Q.** Which protein stability index does the source give for FQHLQNRLIATKNPEEIRGGGLLK here?
**A.** 4.32

**Q.** With FAHLQNRLIATKNPEEIRGGGLLK as the variant, how does the protein stability index read?
**A.** 2.78

**Q.** With FMHLQNRLIATKNPEEIRGGGLLK as the variant, how does the protein stability index read?
**A.** 2.17

**Q.** For FYHLQNRLIATKNPEEIRGGGLLK, which protein stability index is on record?
**A.** 2.8

**Q.** With FIHLQNRLIATKNPEEIRGGGLLK as the variant, how does the protein stability index read?
**A.** 1.04

**Q.** With FDHLINRLIATKNPEEIRGGGLLK as the variant, how does the protein stability index read?
**A.** 3.17

**Q.** For FDHLANRLIATKNPEEIRGGGLLK, which protein stability index is on record?
**A.** 4.57

**Q.** For FDHLFNRLIATKNPEEIRGGGLLK, which protein stability index is on record?
**A.** 3.27

**Q.** Which protein stability index does the source give for FDHLSNRLIATKNPEEIRGGGLLK here?
**A.** 4

**Q.** Which protein stability index does the source give for FDHLHNRLIATKNPEEIRGGGLLK here?
**A.** 3.87

**Q.** Which protein stability index does the source give for FDHLWNRLIATKNPEEIRGGGLLK here?
**A.** 1.08

**Q.** For FDHLMNRLIATKNPEEIRGGGLLK, which protein stability index is on record?
**A.** 2.92

**Q.** Which protein stability index does the source give for FDHLCNRLIATKNPEEIRGGGLLK here?
**A.** 3.96

**Q.** Which protein stability index does the source give for FDHLENRLIATKNPEEIRGGGLLK here?
**A.** 3.82

**Q.** For FDHLKNRLIATKNPEEIRGGGLLK, which protein stability index is on record?
**A.** 3.67

**Q.** With FDHLNNRLIATKNPEEIRGGGLLK as the variant, how does the protein stability index read?
**A.** 3.44

**Q.** With FDHLVNRLIATKNPEEIRGGGLLK as the variant, how does the protein stability index read?
**A.** 3.33

**Q.** With FDHLLNRLIATKNPEEIRGGGLLK as the variant, how does the protein stability index read?
**A.** 2.17

**Q.** Which protein stability index does the source give for FDHLPNRLIATKNPEEIRGGGLLK here?
**A.** 3.63

**Q.** Which protein stability index does the source give for FDHLTNRLIATKNPEEIRGGGLLK here?
**A.** 3.99

**Q.** For FDHLRNRLIATKNPEEIRGGGLLK, which protein stability index is on record?
**A.** 2.86

**Q.** For PDHLQNRLIATKNPEEIRGGGLLK, which protein stability index is on record?
**A.** 4.59

**Q.** With WDHLQNRLIATKNPEEIRGGGLLK as the variant, how does the protein stability index read?
**A.** 3.76

**Q.** Which protein stability index does the source give for TDHLQNRLIATKNPEEIRGGGLLK here?
**A.** 4.28

**Q.** With VDHLQNRLIATKNPEEIRGGGLLK as the variant, how does the protein stability index read?
**A.** 4.67

**Q.** For YDHLQNRLIATKNPEEIRGGGLLK, which protein stability index is on record?
**A.** 3.27

**Q.** Which protein stability index does the source give for MDHLQNRLIATKNPEEIRGGGLLK here?
**A.** 4.39

**Q.** With NDHLQNRLIATKNPEEIRGGGLLK as the variant, how does the protein stability index read?
**A.** 4.4

**Q.** With DDHLQNRLIATKNPEEIRGGGLLK as the variant, how does the protein stability index read?
**A.** 5.18

**Q.** Which protein stability index does the source give for CDHLQNRLIATKNPEEIRGGGLLK here?
**A.** 2.3

**Q.** Which protein stability index does the source give for IDHLQNRLIATKNPEEIRGGGLLK here?
**A.** 3.5

**Q.** With KDHLQNRLIATKNPEEIRGGGLLK as the variant, how does the protein stability index read?
**A.** 4.45

**Q.** For QDHLQNRLIATKNPEEIRGGGLLK, which protein stability index is on record?
**A.** 4.74

**Q.** With GDHLQNRLIATKNPEEIRGGGLLK as the variant, how does the protein stability index read?
**A.** 3.9

**Q.** With LDHLQNRLIATKNPEEIRGGGLLK as the variant, how does the protein stability index read?
**A.** 4.51

**Q.** With EDHLQNRLIATKNPEEIRGGGLLK as the variant, how does the protein stability index read?
**A.** 4.33

**Q.** With SDHLQNRLIATKNPEEIRGGGLLK as the variant, how does the protein stability index read?
**A.** 4.09

**Q.** For HDHLQNRLIATKNPEEIRGGGLLK, which protein stability index is on record?
**A.** 4.47

**Q.** Which protein stability index does the source give for FDSLQNRLIATKNPEEIRGGGLLK here?
**A.** 3.17

**Q.** Which protein stability index does the source give for FDRLQNRLIATKNPEEIRGGGLLK here?
**A.** 3.73

**Q.** With FDFLQNRLIATKNPEEIRGGGLLK as the variant, how does the protein stability index read?
**A.** 2.06

**Q.** With FDELQNRLIATKNPEEIRGGGLLK as the variant, how does the protein stability index read?
**A.** 4.28

**Q.** For FDCLQNRLIATKNPEEIRGGGLLK, which protein stability index is on record?
**A.** 3.63

**Q.** Which protein stability index does the source give for FDPLQNRLIATKNPEEIRGGGLLK here?
**A.** 4

**Q.** For FDWLQNRLIATKNPEEIRGGGLLK, which protein stability index is on record?
**A.** 2.99

**Q.** For FDNLQNRLIATKNPEEIRGGGLLK, which protein stability index is on record?
**A.** 3.05

**Q.** Which protein stability index does the source give for FDGLQNRLIATKNPEEIRGGGLLK here?
**A.** 3.79

**Q.** With FDDLQNRLIATKNPEEIRGGGLLK as the variant, how does the protein stability index read?
**A.** 4.52

**Q.** For FDILQNRLIATKNPEEIRGGGLLK, which protein stability index is on record?
**A.** 3.59

**Q.** Which protein stability index does the source give for FDMLQNRLIATKNPEEIRGGGLLK here?
**A.** 3.71

**Q.** For FDQLQNRLIATKNPEEIRGGGLLK, which protein stability index is on record?
**A.** 3.51

**Q.** For FDVLQNRLIATKNPEEIRGGGLLK, which protein stability index is on record?
**A.** 3.87

**Q.** With FDALQNRLIATKNPEEIRGGGLLK as the variant, how does the protein stability index read?
**A.** 3.72

**Q.** For FDLLQNRLIATKNPEEIRGGGLLK, which protein stability index is on record?
**A.** 3.25

**Q.** Which protein stability index does the source give for FDHLQFRLIATKNPEEIRGGGLLK here?
**A.** 2.38

**Q.** With FDHLQARLIATKNPEEIRGGGLLK as the variant, how does the protein stability index read?
**A.** 3.58

**Q.** Which protein stability index does the source give for FDHLQCRLIATKNPEEIRGGGLLK here?
**A.** 1.88

**Q.** Which protein stability index does the source give for FDHLQERLIATKNPEEIRGGGLLK here?
**A.** 3.87

Variants of: B2
Assay: as above
Conditions: c terminus: a fixed tail appended

**Q.** For LCKDCQVIDGRNVTVTDVDIVFST, which protein stability index is on record?
**A.** 1.97

**Q.** Which protein stability index does the source give for LCKDCQVIDGRNVTVTDVDIVFSL here?
**A.** 2.99

**Q.** With LCKDCQVIDGRNVTVTDVDIVFSR as the variant, how does the protein stability index read?
**A.** 2.39

**Q.** With LCKDCQVIDGRNVTVTDVDIVFSS as the variant, how does the protein stability index read?
**A.** 2.44

**Q.** With LCKDCQVIDGRNVTVTDVDIVFSQ as the variant, how does the protein stability index read?
**A.** 2.35

**Q.** With LCKDCQVIDGRNVTVTDVDIVFSN as the variant, how does the protein stability index read?
**A.** 3.05

**Q.** For LCKDCQVIDGRNVTVTDVDIVFSP, which protein stability index is on record?
**A.** 2.62

**Q.** For LCKDCQVIDGRNVTVTDVDIVFSW, which protein stability index is on record?
**A.** 2.25

**Q.** With LCKDCQVIDGRNVTVTDVDIVFSY as the variant, how does the protein stability index read?
**A.** 2.06
